Target: T1, fluorescently quenched α-gliadin hexapeptide analogue QXL520-PQPQLP-K(5-FAM)-NH2
T1 chain: PQPQLP

Protein | Fold Change in Activity of PQ Hydrolysis Relative to Wild Type Kumamolysin-As [fold]
Kumamolysin-As N291D, Q361D, D358G (protein) MSDMEKPWKEGEEARAVLQGHARAQAPQAVDKGPVAGDERMAVTVVLRRQRAGELAAHVERQAAIAPHAREHLKREAFAASHGASLDDFAELRRFADAHGLALDRANVAAGTAVLSGPVDAINRAFGVELRHFDHPDGSYRSYLGEVTVPASIAPMIEAVLGLDTRPVARPHFRMQRRAEGGFEARSQAAAPTAYTPLDVAQAYQFPEGLDGQGQCIAIIELGGGYDEASLAQYFASLGVPAPQVVSVSVDGASNQPTGDPSGPDGEVELDIEVAGALAPGAKFAVYFAPDTDAGFLDAITTAIHDPTLKPSVVSISWGGPEDSWTSAAIAAMNRAFLDAAALGVTVLAAAGDSGSTGGEDDGLYHVDFPAASPYVLACGGTRLVASGGRIAQETVWNDGPDGGATGGGVSRIFPLPAWQEHANVPPSANPGASSGRGVPDLAGNADPATGYEVVIDGEATVIGGTSAVAPLFAALVARINQKLGKAVGYLNPTLYQLPADVFHDITEGNNDIANRAQIYQAGPGWDPCTGLGSPIGVRLLQALLPSASQPQPGSTENLYFQSGALEHHHHHH | 20
Kumamolysin-As T292S, N291D, G319S, D358G, D368H (protein) MSDMEKPWKEGEEARAVLQGHARAQAPQAVDKGPVAGDERMAVTVVLRRQRAGELAAHVERQAAIAPHAREHLKREAFAASHGASLDDFAELRRFADAHGLALDRANVAAGTAVLSGPVDAINRAFGVELRHFDHPDGSYRSYLGEVTVPASIAPMIEAVLGLDTRPVARPHFRMQRRAEGGFEARSQAAAPTAYTPLDVAQAYQFPEGLDGQGQCIAIIELGGGYDEASLAQYFASLGVPAPQVVSVSVDGASNQPTGDPSGPDGEVELDIEVAGALAPGAKFAVYFAPDSDAGFLDAITTAIHDPTLKPSVVSISWSGPEDSWTSAAIAAMNRAFLDAAALGVTVLAAAGDSGSTGGEQDGLYHVHFPAASPYVLACGGTRLVASGGRIAQETVWNDGPDGGATGGGVSRIFPLPAWQEHANVPPSANPGASSGRGVPDLAGNADPATGYEVVIDGEATVIGGTSAVAPLFAALVARINQKLGKAVGYLNPTLYQLPADVFHDITEGNNDIANRAQIYQAGPGWDPCTGLGSPIGVRLLQALLPSASQPQPGSTENLYFQSGALEHHHHHH | 49
Kumamolysin-As N291D, D293A, G319S, D358G, Q361D, D368H (protein) MSDMEKPWKEGEEARAVLQGHARAQAPQAVDKGPVAGDERMAVTVVLRRQRAGELAAHVERQAAIAPHAREHLKREAFAASHGASLDDFAELRRFADAHGLALDRANVAAGTAVLSGPVDAINRAFGVELRHFDHPDGSYRSYLGEVTVPASIAPMIEAVLGLDTRPVARPHFRMQRRAEGGFEARSQAAAPTAYTPLDVAQAYQFPEGLDGQGQCIAIIELGGGYDEASLAQYFASLGVPAPQVVSVSVDGASNQPTGDPSGPDGEVELDIEVAGALAPGAKFAVYFAPDTAAGFLDAITTAIHDPTLKPSVVSISWSGPEDSWTSAAIAAMNRAFLDAAALGVTVLAAAGDSGSTGGEDDGLYHVHFPAASPYVLACGGTRLVASGGRIAQETVWNDGPDGGATGGGVSRIFPLPAWQEHANVPPSANPGASSGRGVPDLAGNADPATGYEVVIDGEATVIGGTSAVAPLFAALVARINQKLGKAVGYLNPTLYQLPADVFHDITEGNNDIANRAQIYQAGPGWDPCTGLGSPIGVRLLQALLPSASQPQPGSTENLYFQSGALEHHHHHH | 40.9
Kumamolysin-As N291D, D293A, D358N (protein) MSDMEKPWKEGEEARAVLQGHARAQAPQAVDKGPVAGDERMAVTVVLRRQRAGELAAHVERQAAIAPHAREHLKREAFAASHGASLDDFAELRRFADAHGLALDRANVAAGTAVLSGPVDAINRAFGVELRHFDHPDGSYRSYLGEVTVPASIAPMIEAVLGLDTRPVARPHFRMQRRAEGGFEARSQAAAPTAYTPLDVAQAYQFPEGLDGQGQCIAIIELGGGYDEASLAQYFASLGVPAPQVVSVSVDGASNQPTGDPSGPDGEVELDIEVAGALAPGAKFAVYFAPDTAAGFLDAITTAIHDPTLKPSVVSISWGGPEDSWTSAAIAAMNRAFLDAAALGVTVLAAAGDSGSTNGEQDGLYHVDFPAASPYVLACGGTRLVASGGRIAQETVWNDGPDGGATGGGVSRIFPLPAWQEHANVPPSANPGASSGRGVPDLAGNADPATGYEVVIDGEATVIGGTSAVAPLFAALVARINQKLGKAVGYLNPTLYQLPADVFHDITEGNNDIANRAQIYQAGPGWDPCTGLGSPIGVRLLQALLPSASQPQPGSTENLYFQSGALEHHHHHH | 24
Kumamolysin-As N291D, D293A, G319S, S354N, D358G, Q361D, D368H (protein) MSDMEKPWKEGEEARAVLQGHARAQAPQAVDKGPVAGDERMAVTVVLRRQRAGELAAHVERQAAIAPHAREHLKREAFAASHGASLDDFAELRRFADAHGLALDRANVAAGTAVLSGPVDAINRAFGVELRHFDHPDGSYRSYLGEVTVPASIAPMIEAVLGLDTRPVARPHFRMQRRAEGGFEARSQAAAPTAYTPLDVAQAYQFPEGLDGQGQCIAIIELGGGYDEASLAQYFASLGVPAPQVVSVSVDGASNQPTGDPSGPDGEVELDIEVAGALAPGAKFAVYFAPDTAAGFLDAITTAIHDPTLKPSVVSISWSGPEDSWTSAAIAAMNRAFLDAAALGVTVLAAAGDNGSTGGEDDGLYHVHFPAASPYVLACGGTRLVASGGRIAQETVWNDGPDGGATGGGVSRIFPLPAWQEHANVPPSANPGASSGRGVPDLAGNADPATGYEVVIDGEATVIGGTSAVAPLFAALVARINQKLGKAVGYLNPTLYQLPADVFHDITEGNNDIANRAQIYQAGPGWDPCTGLGSPIGVRLLQALLPSASQPQPGSTENLYFQSGALEHHHHHH | 58
Kumamolysin-As S262G, T292S, N291D, G319S, D358G, D368H (protein) MSDMEKPWKEGEEARAVLQGHARAQAPQAVDKGPVAGDERMAVTVVLRRQRAGELAAHVERQAAIAPHAREHLKREAFAASHGASLDDFAELRRFADAHGLALDRANVAAGTAVLSGPVDAINRAFGVELRHFDHPDGSYRSYLGEVTVPASIAPMIEAVLGLDTRPVARPHFRMQRRAEGGFEARSQAAAPTAYTPLDVAQAYQFPEGLDGQGQCIAIIELGGGYDEASLAQYFASLGVPAPQVVSVSVDGASNQPTGDPGGPDGEVELDIEVAGALAPGAKFAVYFAPDSDAGFLDAITTAIHDPTLKPSVVSISWSGPEDSWTSAAIAAMNRAFLDAAALGVTVLAAAGDSGSTGGEQDGLYHVHFPAASPYVLACGGTRLVASGGRIAQETVWNDGPDGGATGGGVSRIFPLPAWQEHANVPPSANPGASSGRGVPDLAGNADPATGYEVVIDGEATVIGGTSAVAPLFAALVARINQKLGKAVGYLNPTLYQLPADVFHDITEGNNDIANRAQIYQAGPGWDPCTGLGSPIGVRLLQALLPSASQPQPGSTENLYFQSGALEHHHHHH | 29
Kumamolysin-As N291D, G319S, S354N, D358G, D368H (protein) MSDMEKPWKEGEEARAVLQGHARAQAPQAVDKGPVAGDERMAVTVVLRRQRAGELAAHVERQAAIAPHAREHLKREAFAASHGASLDDFAELRRFADAHGLALDRANVAAGTAVLSGPVDAINRAFGVELRHFDHPDGSYRSYLGEVTVPASIAPMIEAVLGLDTRPVARPHFRMQRRAEGGFEARSQAAAPTAYTPLDVAQAYQFPEGLDGQGQCIAIIELGGGYDEASLAQYFASLGVPAPQVVSVSVDGASNQPTGDPSGPDGEVELDIEVAGALAPGAKFAVYFAPDTDAGFLDAITTAIHDPTLKPSVVSISWSGPEDSWTSAAIAAMNRAFLDAAALGVTVLAAAGDNGSTGGEQDGLYHVHFPAASPYVLACGGTRLVASGGRIAQETVWNDGPDGGATGGGVSRIFPLPAWQEHANVPPSANPGASSGRGVPDLAGNADPATGYEVVIDGEATVIGGTSAVAPLFAALVARINQKLGKAVGYLNPTLYQLPADVFHDITEGNNDIANRAQIYQAGPGWDPCTGLGSPIGVRLLQALLPSASQPQPGSTENLYFQSGALEHHHHHH | 54.6
Kumamolysin-As D293T, N291D, G319S, D358G, D368H (protein) MSDMEKPWKEGEEARAVLQGHARAQAPQAVDKGPVAGDERMAVTVVLRRQRAGELAAHVERQAAIAPHAREHLKREAFAASHGASLDDFAELRRFADAHGLALDRANVAAGTAVLSGPVDAINRAFGVELRHFDHPDGSYRSYLGEVTVPASIAPMIEAVLGLDTRPVARPHFRMQRRAEGGFEARSQAAAPTAYTPLDVAQAYQFPEGLDGQGQCIAIIELGGGYDEASLAQYFASLGVPAPQVVSVSVDGASNQPTGDPSGPDGEVELDIEVAGALAPGAKFAVYFAPDTTAGFLDAITTAIHDPTLKPSVVSISWSGPEDSWTSAAIAAMNRAFLDAAALGVTVLAAAGDSGSTGGEQDGLYHVHFPAASPYVLACGGTRLVASGGRIAQETVWNDGPDGGATGGGVSRIFPLPAWQEHANVPPSANPGASSGRGVPDLAGNADPATGYEVVIDGEATVIGGTSAVAPLFAALVARINQKLGKAVGYLNPTLYQLPADVFHDITEGNNDIANRAQIYQAGPGWDPCTGLGSPIGVRLLQALLPSASQPQPGSTENLYFQSGALEHHHHHH | 58
Kumamolysin-As N291D, G319S, D358G, Q361D, D368H (protein) MSDMEKPWKEGEEARAVLQGHARAQAPQAVDKGPVAGDERMAVTVVLRRQRAGELAAHVERQAAIAPHAREHLKREAFAASHGASLDDFAELRRFADAHGLALDRANVAAGTAVLSGPVDAINRAFGVELRHFDHPDGSYRSYLGEVTVPASIAPMIEAVLGLDTRPVARPHFRMQRRAEGGFEARSQAAAPTAYTPLDVAQAYQFPEGLDGQGQCIAIIELGGGYDEASLAQYFASLGVPAPQVVSVSVDGASNQPTGDPSGPDGEVELDIEVAGALAPGAKFAVYFAPDTDAGFLDAITTAIHDPTLKPSVVSISWSGPEDSWTSAAIAAMNRAFLDAAALGVTVLAAAGDSGSTGGEDDGLYHVHFPAASPYVLACGGTRLVASGGRIAQETVWNDGPDGGATGGGVSRIFPLPAWQEHANVPPSANPGASSGRGVPDLAGNADPATGYEVVIDGEATVIGGTSAVAPLFAALVARINQKLGKAVGYLNPTLYQLPADVFHDITEGNNDIANRAQIYQAGPGWDPCTGLGSPIGVRLLQALLPSASQPQPGSTENLYFQSGALEHHHHHH | 23.1
Kumamolysin-As N291D, G319S, S354N, D358G, Q361D, D368H (protein) MSDMEKPWKEGEEARAVLQGHARAQAPQAVDKGPVAGDERMAVTVVLRRQRAGELAAHVERQAAIAPHAREHLKREAFAASHGASLDDFAELRRFADAHGLALDRANVAAGTAVLSGPVDAINRAFGVELRHFDHPDGSYRSYLGEVTVPASIAPMIEAVLGLDTRPVARPHFRMQRRAEGGFEARSQAAAPTAYTPLDVAQAYQFPEGLDGQGQCIAIIELGGGYDEASLAQYFASLGVPAPQVVSVSVDGASNQPTGDPSGPDGEVELDIEVAGALAPGAKFAVYFAPDTDAGFLDAITTAIHDPTLKPSVVSISWSGPEDSWTSAAIAAMNRAFLDAAALGVTVLAAAGDNGSTGGEDDGLYHVHFPAASPYVLACGGTRLVASGGRIAQETVWNDGPDGGATGGGVSRIFPLPAWQEHANVPPSANPGASSGRGVPDLAGNADPATGYEVVIDGEATVIGGTSAVAPLFAALVARINQKLGKAVGYLNPTLYQLPADVFHDITEGNNDIANRAQIYQAGPGWDPCTGLGSPIGVRLLQALLPSASQPQPGSTENLYFQSGALEHHHHHH | 50

Reference: patent publication US10487318
